This assay concerns the target T1, HLA-A*02:01 (peptide-receptive MHC class I monomer from UV-ligand exchange) (human).
T1 construct: Monomers were captured on streptavidin-coated plates
Kind of assay: UV-exchange ELISA (anti-b2m); exchange yield grade: + >=10%, ++ >=20%, +++ >=50%, ++++ >=75%. From the text:
Candidate peptides for T cell based therapies according to the present invention were further tested for their MHC binding capacity (affinity). The individual peptide-MHC complexes were produced by UV-ligand exchange, where a UV-sensitive peptide is cleaved upon UV-irradiation, and exchanged with the peptide of interest as analyzed. Only peptide candidates that can effectively bind and stabilize the peptide-receptive MHC molecules prevent dissociation of the MHC complexes. To determine the yield of the exchange reaction, an ELISA was performed based on the detection of the light chain (β2m) of stabilized MHC complexes. The assay was performed as generally described in Rodenko et al. (Rodenko et al., 2006).
96 well MAXISorp plates (NUNC) were coated over night with 2 ug/ml streptavidin in PBS at room temperature, washed 4× and blocked for 1 h at 37° C. in 2% BSA containing blocking buffer. Refolded HLA-A*02:01/MLA-001 monomers served as standards, covering the range of 15-500 ng/ml. Peptide-MHC monomers of the UV-exchange reaction were diluted 100 fold in blocking buffer. Samples were incubated for 1 h at 37° C., washed four times, incubated with 2 ug/ml HRP conjugated anti-β2m for 1 h at 37° C., washed again and detected with TMB solution that is stopped with […]. Absorption was measured at 450 nm. Candidate peptides that show a high exchange yield (preferably higher than 50%, most preferred higher than 75%) are generally preferred for a generation and production of antibodies or fragments thereof, and/or T cell receptors or fragments thereof, as they show sufficient avidity to the MHC molecules and prevent dissociation of the MHC complexes.
(An ELISA detects its analyte on a solid surface through an enzyme-linked reagent.)
For the molecule SLMMTIINL [peptide SLMMTIINL (SEQ ID NO 156)], the peptide exchange yield is at least 75%. The value for TLAKYLMEL [peptide TLAKYLMEL (SEQ ID NO 126)] was 50 to 75%. For LLGELPRLLLL [peptide LLGELPRLLLL (SEQ ID NO 110)] the value was 50 to 75%. As for LVYQFVHPI [peptide LVYQFVHPI (SEQ ID NO 116)], the peptide exchange yield lay within 20 to 50%. For RVLPPSALQSV [peptide RVLPPSALQSV (SEQ ID NO 124)] the value was 50 to 75%; for YQFDKVGILTL [peptide YQFDKVGILTL (SEQ ID NO 149)], 50 to 75%. For MLDDRAYLV [peptide MLDDRAYLV (SEQ ID NO 128)] the value was 20 to 50%.

As for KQFEGTVEI [peptide KQFEGTVEI (SEQ ID NO 138)], the peptide exchange yield fell in the range of 50 to 75%. The value for LLNDRIWLA [peptide LLNDRIWLA (SEQ ID NO 144)] was 50 to 75%; that for YLFEKTFNM [peptide YLFEKTFNM (SEQ ID NO 11)] was 50 to 75%; that for SLFDVSHML [peptide SLFDVSHML (SEQ ID NO 115)] was 50 to 75%. For KTLERSYLL [peptide KTLERSYLL (SEQ ID NO 123)] the value was 20 to 50%; for ALVQGILERV [peptide ALVQGILERV (SEQ ID NO 12)], 50 to 75%.

With KLPSETIFVGC [peptide KLPSETIFVGC (SEQ ID NO 154)], the peptide exchange yield lay in the range of 50 to 75%. LQLDKEFQL [peptide LQLDKEFQL (SEQ ID NO 15)]: the peptide exchange yield was 50 to 75%. For LLADLKTMV [peptide LLADLKTMV (SEQ ID NO 118)] the value was 50 to 75%; for ALLGGGPYML [peptide ALLGGGPYML (SEQ ID NO 107)], 50 to 75%; for FLDKPEDVLL [peptide FLDKPEDVLL (SEQ ID NO 14)], 20 to 50%.

LLLEVVKQV [peptide LLLEVVKQV (SEQ ID NO 145)]: the peptide exchange yield fell in the range of 50 to 75%.

Turning to TLTELRAFL [peptide TLTELRAFL (SEQ ID NO 147)], the peptide exchange yield is at least 75%. On to TLQPVDNSTISL [peptide TLQPVDNSTISL (SEQ ID NO 117)], for which the peptide exchange yield is 20 to 50%.

On to SLISEKILL [peptide SLISEKILL (SEQ ID NO 106)], for which the peptide exchange yield was in the range of 50 to 75%. Turning to ALDGDQMEL [peptide ALDGDQMEL (SEQ ID NO 109)], the peptide exchange yield lay in the range of 20 to 50%.

RTFEKIEEV [peptide RTFEKIEEV (SEQ ID NO 133)]: the peptide exchange yield was 20 to 50%.

On to VLLNEILEQV [peptide VLLNEILEQV (SEQ ID NO 139)], for which the peptide exchange yield lay within 50 to 75%. With ILFSEDSTKLFV [peptide ILFSEDSTKLFV (SEQ ID NO 153)], the peptide exchange yield lay within 50 to 75%. As to SLMGMVLKL [peptide SLMGMVLKL (SEQ ID NO 122)], the peptide exchange yield is 50 to 75%. On to KLFDIFSQQV [peptide KLFDIFSQQV (SEQ ID NO 136)], for which the peptide exchange yield is 50 to 75%. Regarding KLLAVIHEL (also called RAD54B-002) [peptide KLLAVIHEL (SEQ ID NO 152)], the peptide exchange yield is 20 to 50%. For KLGDFGLLVEL [peptide KLGDFGLLVEL (SEQ ID NO 125)], the peptide exchange yield is at least 75%. The value for KLLDVVHPA [peptide KLLDVVHPA (SEQ ID NO 131)] was 20 to 50%. The value for GVAGGSILKGV [peptide GVAGGSILKGV (SEQ ID NO 134)] was at least 75%; that for ALLNAILHSA [peptide ALLNAILHSA (SEQ ID NO 132)] was 50 to 75%. On to RLADLEALKV [peptide RLADLEALKV (SEQ ID NO 150)], for which the peptide exchange yield fell in the range of 50 to 75%.

Take FLLAEDTKV [peptide FLLAEDTKV (SEQ ID NO 13)]: the peptide exchange yield is 50 to 75%.

On to YALDLSTFL [peptide YALDLSTFL (SEQ ID NO 105)], for which the peptide exchange yield was in the range of 50 to 75%. Turning to SLVQRVETI (also called ECT2-001) [peptide SLVQRVETI (SEQ ID NO 142)], the peptide exchange yield was in the range of 50 to 75%. For the molecule ALIKQLFEA (also called ZNF-002) [peptide ALIKQLFEA (SEQ ID NO 1)], the peptide exchange yield lay within 50 to 75%.

VLIDVLKEL [peptide VLIDVLKEL (SEQ ID NO 129)]: the peptide exchange yield was in the range of 50 to 75%. The value for ILYQTVTGL [peptide ILYQTVTGL (SEQ ID NO 119)] was 20 to 50%. For SLAPNIISQL [peptide SLAPNIISQL (SEQ ID NO 121)], the peptide exchange yield lay in the range of 50 to 75%. Take SLIERDLKL [peptide SLIERDLKL (SEQ ID NO 157)]: the peptide exchange yield fell in the range of 50 to 75%. Regarding KLSDVWKEL [peptide KLSDVWKEL (SEQ ID NO 143)], the peptide exchange yield was in the range of 50 to 75%. The value for RLAELTVDEFLA [peptide RLAELTVDEFLA (SEQ ID NO 127)] was 50 to 75%. For TAVGHALVL [peptide TAVGHALVL (SEQ ID NO 114)] the value was 10 to 20%; for GLGGSQLIDTHL [peptide GLGGSQLIDTHL (SEQ ID NO 130)], 20 to 50%; for VLYEGVDEV [peptide VLYEGVDEV (SEQ ID NO 120)], 20 to 50%. The value for RMYNKIFAI [peptide RMYNKIFAI (SEQ ID NO 10)] was 50 to 75%; that for AVIEHLERL [peptide AVIEHLERL (SEQ ID NO 141)] was at least 75%. As for RLLGEEVVRV [peptide RLLGEEVVRV (SEQ ID NO 155)], the peptide exchange yield is 50 to 75%.

For the molecule SLAELVPGVGGI [peptide SLAELVPGVGGI (SEQ ID NO 108)], the peptide exchange yield was 50 to 75%. For the molecule QLTEIKPLL [peptide QLTEIKPLL (SEQ ID NO 137)], the peptide exchange yield is 50 to 75%.

In the case of ILLTIKDDTIYL [peptide ILLTIKDDTIYL (SEQ ID NO 104)], the peptide exchange yield was 50 to 75%.

For RLLENMTEVV [peptide RLLENMTEVV (SEQ ID NO 148)], the peptide exchange yield was in the range of 50 to 75%.

Consider KLQEEIPVL [peptide KLQEEIPVL (SEQ ID NO 135)], for which the peptide exchange yield lay within 20 to 50%.

In the case of SAQGSDVSLTACKV [peptide SAQGSDVSLTACKV (SEQ ID NO 151)], the peptide exchange yield is 50 to 75%. Regarding ILYDLQQNL [peptide ILYDLQQNL (SEQ ID NO 113)], the peptide exchange yield was in the range of 20 to 50%. For ALSDETWGL [peptide ALSDETWGL (SEQ ID NO 146)] the value was 20 to 50%; for KLGQVLIYL [peptide KLGQVLIYL (SEQ ID NO 112)], 20 to 50%. The value for LLNEILEQV [peptide LLNEILEQV (SEQ ID NO 140)] was 50 to 75%.

Source of the values: patent US20160347808A1 (IMMATICS BIOTECHNOLOGIES, published 2016).
